Results as given in article PMC7898697.

Target: triazole-linked ^triazole42Ub^me-ADPr (5), biotinylated (UniProt P0CG48)
Experiment: pull-down

Substance: mCherry-DupA-WT (from UniProt Q5ZTK7 1-301) (enzyme)
- fold enrichment against biotinylated wild-type Ub or beads: > 10 fold
